Data reported in patent US20130171156.
Positions count from the first letter of the chain named.

B1: “converted” BMP-1-3 protein (protein)
chain: AATSRPERVWPDGVIPFVIGGNFTGSQRAVFRQAMRHWEKHTCVTFLERTDEDSYIVFTYRPCGCCSYVGRRGGGPQAISIGKNCDKFGIVVHELGHVVGFWHEHTRPDRDRHVSIVRENIQPGQEYNFLKMEPQEVESLGETYDFDSIMHYARNTFSRGIFLDTIVPKYEVNGVKPPIGQRTRLSKGDIAQARKLYKCPACGETLQDSTGNFSSPEYPNGYSAHMHCVWRISVTPGEKIILNFTSLDLYRSRLCWYDYVEVRDGFWRKAPLRGRFCGSKLPEPIVSTDSRLWVEFRSSSNWVGKGFFAVYEAICGGDVKKDYGHIQSPNYPDDYRPSKVCIWRIQVSEGFHVGLTFQSFEIERHDSCAYDYLEVRDGHSESSTLIGRYCGYEKPDDIKSTSSRLWLKFVSDGSINKAGFAVNFFKEVDECSRPNRGGCEQRCLNTLGSYKCSCDPGYELAPDKRRCEAACGGFLTKLNGSITSPGWPKEYPPNKNCIWQLVAPTQYRISLQFDFFETEGNDVCKYDFVEVRSGLTADSKLHGKFCGSEKPEVITSQYNNMRVEFKSDNTVSKKGFKAHFFSDKDECSKDNGGCQQDCVNTFGSYECQCRSGFVLHDNKHDCKEAGCDHKVTSTSGTITSPNWPDKYPSKKECTWAISSTPGHRVKLTFMEMDIESQPECAYDHLEVFDGRDAKAPVLGRFCGSKKPEPVLATGSRMFLRFYSDNSVQRKGFQASHATECGGQVRADVKTKDLYSHAQFGDNNYPGGVDCEWVIVAEEGYGVELVFQTFEVEEETDCGYDYMELFDGYDSTAPRLGRYCGSGPPEEVYSAGDSVLVKFHSDDTITKKGFHLRYTSTKFQDTLHSRK
B2: placental BMP-1-3 protein (protein)
chain: B1 chain with L373Q

Key:
[1] = biological target: calmodulin, P0DP23
[2] = biological target: type IV collagen

Row | Protein | in vitro processing (enzyme activity) [1] | in vitro processing (enzyme activity) [2]
1 | B1 | which properties were not exhibited with the “converted” BMP-1-3 protein | which properties were not exhibited with the “converted” BMP-1-3 protein
2 | B2 | processed calmodulin and type IV collagen | processed calmodulin and type IV collagen
